Results: IntAct's records for PubMed 20671708

Target: ago2_human AGO2 (UniProt Q9UKV8)
Sequence (Q9UKV8 whole entry): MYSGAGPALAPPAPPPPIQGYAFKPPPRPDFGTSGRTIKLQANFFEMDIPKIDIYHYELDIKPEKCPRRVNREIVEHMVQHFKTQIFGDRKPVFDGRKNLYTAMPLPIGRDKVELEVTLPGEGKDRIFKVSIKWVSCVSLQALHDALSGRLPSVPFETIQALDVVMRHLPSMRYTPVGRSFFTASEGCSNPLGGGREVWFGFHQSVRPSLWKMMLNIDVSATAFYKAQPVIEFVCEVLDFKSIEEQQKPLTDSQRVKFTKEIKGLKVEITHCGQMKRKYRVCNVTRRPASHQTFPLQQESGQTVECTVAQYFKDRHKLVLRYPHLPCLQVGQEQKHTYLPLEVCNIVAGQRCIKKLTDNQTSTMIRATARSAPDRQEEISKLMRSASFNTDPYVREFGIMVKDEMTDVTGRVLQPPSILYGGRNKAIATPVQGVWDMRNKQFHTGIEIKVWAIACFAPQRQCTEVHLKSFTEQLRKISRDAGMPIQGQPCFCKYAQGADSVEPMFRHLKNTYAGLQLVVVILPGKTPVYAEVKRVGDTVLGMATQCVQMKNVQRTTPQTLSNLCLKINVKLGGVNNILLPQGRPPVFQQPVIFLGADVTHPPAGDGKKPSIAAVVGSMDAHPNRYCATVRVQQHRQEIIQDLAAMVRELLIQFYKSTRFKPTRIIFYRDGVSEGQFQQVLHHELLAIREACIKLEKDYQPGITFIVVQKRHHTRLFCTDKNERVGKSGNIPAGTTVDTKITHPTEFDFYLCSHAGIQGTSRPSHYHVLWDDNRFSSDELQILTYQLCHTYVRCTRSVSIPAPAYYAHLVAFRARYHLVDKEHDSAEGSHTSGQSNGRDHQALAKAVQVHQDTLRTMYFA

Leucine-rich repeat serine/threonine-protein kinase 2 (Homo sapiens), Q5S007 G2019S
effect of a mutation on the interaction: increasing interaction

Leucine-rich repeat serine/threonine-protein kinase 2 (Homo sapiens), Q5S007 K1906M;D1994A;D2017A
effect of a mutation on the interaction: increasing interaction
